{"source": "patent US6962795", "about": "(CORVAS INTERNATIONAL, dated 2005)", "binders": {"B1": {"name": "recombinant AcaNIF4 produced in Pichia pastoris (ligand)", "chain": "NEHKPMCERNETEMPGFNDSMRLQFLAMHNGYRSLLALGHVGISKQPIDDDYYDDDYYYFYSSYAPRASKMRYLEYDCEAEKSAYVSASNCSNISSPPEGYDENKYIFENSNNISEAALKAMISWAKEAFNLNKTEEGEGVLYRSNHDISNFANLAWDTREKFGCAVVNCPLGEIDTTSNRDGETYATAIHVVCHYPKILEKEEKQIYEVGKPCDRCSEYSKNANNITSPNWVCNDDDGVCFIGSKDDYISKEFYRFREL", "notes": "also called mature AcaNIF4"}, "B2": {"name": "AceNIF3 produced in Pichia pastoris (pYAM7SP-AceNIF3) (ligand)", "chain": "NEHEPTCKQNNGSMTNELRRRFLRLHNGYRSILALGHVNISEESNETFLYAHRASRMRILDYDCDAEGSAYESAIKQCSSNKSSSAEYDENVYVIDNTYEDEVDPALKAISSWTSQAFNLTHAEEGIPYQWNDSVSDFANVAWDAREKLGCAVVTCDQGNTTHVVCHYGPKAANKTEPIYKVGVPCSNCTEYTRGDEEKVFCHADEGVCVINLRDLNSHLNTSLRYPPI", "notes": "Carries a hybrid N-terminus N-E-H-E-P-T-C-K-Q (first three residues from AcaNIF9); Tested as crude Pichia cell supernatant"}, "B3": {"name": "recombinant AcaNIF9 produced in Pichia pastoris (ligand)", "chain": "NEHDPTCPQNEVEMEKGFDDAMRLKFLALHNGYRSKLALGHVSITEESEDYDLYDLLYAPTASKMRYLEYDCEAEKSAYESAKKCQTTAFSSTKYDENLQVIEDPRDINHAALKAIISWATEAFNLNKTGEGVVYRSILNISNFANLAWDTREKVGCAVVKCPSGNTHVVCHYPKIVKKEGKPIYSIGKPCRGCNDYASKFFCHADEGVCIIASRDLDIYGRKKYFYPFREL", "notes": "Only partially purified when tested"}, "B4": {"name": "recombinant mature NIF-1FL produced in Pichia pastoris (ligand)", "chain": "NEHNLRCPQNGTEMPGFNDSIRLQFLAMHNGYRSKLALGHISITEESESDDDDDFGFLPDFAPRASKMRYLEYDCEAEKSAYMSARNCSDSSSPPEGYDENKYIFENSNNISEAALKAMISWAKEAFNLNKTKEGEGVLYRSNHDISNFANLAWDAREKFGCAVVNCPLGEIDDETNHDGETYATTIHVVCHYPKINKTEGQPIYKVGTPCDDCSEYTKKADNTTSADPVCIPDDGVCFIGSKADYDSKEFYRFREL", "modifications": "N-glycosylated (Pichia); biotinylated on oxidised carbohydrate where used as labelled tracer", "notes": "also called rNIF; recombinant NIF"}, "B5": {"name": "phages displaying mature NIF-1FL (NIF-1FL-pgIII fusion from pAN-NIF-1FL) (other)", "chain": "B4 chain", "notes": "An extra Ala codon stands between the pelB signal and NIF-1FL; also called NIF-phage; NIF-displaying phages; not shown: linker with a NotI site and a suppressed TAG amber codon between NIF-1FL and pgIII; product of filamentous phage M13 gene III (pgIII), fused at the C-terminus of NIF-1FL"}, "B6": {"name": "recombinant NIF-1FL/Δh, Gl1-7 produced in Pichia pastoris (ligand)", "chain": "B4 chain with N10Q, N18Q, N87Q, N110Q, N130Q, N197Q, N223Q", "notes": "Mature NIF-1FL with Asn to Gln at positions 10, 18, 87, 110, 130, 197 and 223; also called hNIF1/Δh, Gl1-7; AcaNIF1/Δh, Gl1-7"}, "B7": {"name": "recombinant NIF-1FL/ΔGl1-5 produced in Pichia pastoris (ligand)", "chain": "B4 chain with N10Q, N18Q, N87Q, N110Q, N130Q", "notes": "Mature NIF-1FL with Asn to Gln at positions 10, 18, 87, 110 and 130; also called hNIF1/ΔGl1-5; AcaNIF1/ΔGl1-5"}, "B8": {"name": "recombinant AcaNIF6 produced in Pichia pastoris (ligand)", "chain": "NEHKPMCQQNETEMPGFNDLMRLQFLAMHNGYRSKLALGHISITDESESDYDYDYGFLPDFAPSASKMRYLEYDCEAERSAYTSASDCSDSSSPPEGYDENKYIFENSNNISEAALKAMISWAKEAFNLNKTEKGVLYQPNHDISNFANLAWDTREKFGCAVVNCPLGEIDADIYDEETYATTIHVVCHYPKINKTEGEPIYKVGTPCDDCSEYTKKADNTTSADPVCIPDDGVCFIGSKADYDSKEFYRFREL", "notes": "also called mature AcaNIF6"}}, "key": {"[1]": {"biological_target": "T1, Mac-1 integrin complex (CD11b/CD18) (human, UniProt P11215 17-1152; P05107 23-769)", "assay": "competition ELISA with biotinylated mature NIF-1FL on LM2-captured Mac-1 (FIG. 18)"}, "[2]": {"biological_target": "T1, Mac-1 integrin complex (CD11b/CD18)", "assay": "competition with biotinylated NIF-1FL on LM2-captured Mac-1, Pichia supernatant"}, "[3]": {"biological_target": "T1, Mac-1 integrin complex (CD11b/CD18)", "assay": "soluble NIF-1FL pre-incubated in varying amounts on LM2/Mac-1-coated wells before the phages"}, "[4]": {"biological_target": "T1, Mac-1 integrin complex (CD11b/CD18)", "assay": "panning of a 1:1 mix of pAN-NIF-1FL and fd-tet phage on a Mac-1-coated well, acid elution, colony counts"}, "[5]": {"biological_target": "T1, Mac-1 integrin complex (CD11b/CD18)", "assay": "ELISA on LM2-captured Mac-1, 3D2-HRP detection, Pichia supernatant"}}, "note": "Changes are numbered by the printed parent chain.", "data": [{"binder": "B1", "values": [{"measurement": "binding result", "setting": "[1]", "value": "binds"}]}, {"binder": "B2", "values": [{"measurement": "binding result", "setting": "[2]", "value": "binds"}]}, {"binder": "B3", "values": [{"measurement": "binding result", "setting": "[2]", "value": "binds"}]}, {"binder": "B4", "values": [{"measurement": "binding result", "setting": "[3]", "value": "binds"}]}, {"binder": "B5", "values": [{"measurement": "fold enrichment over non-displaying fd-tet phage", "setting": "[4]", "value": 30, "unit": "fold"}]}, {"binder": "B6", "values": [{"measurement": "binding result", "setting": "[5]", "value": "binds"}]}, {"binder": "B7", "values": [{"measurement": "binding result", "setting": "[5]", "value": "binds"}]}, {"binder": "B8", "values": [{"measurement": "binding result", "setting": "[5]", "value": "binds"}]}]}
